{
  "source": "patent US20230103631A1",
  "about": "“PEPTIDES AS SELECTIVE GIP RECEPTOR AGONISTS” (Sanofi, priority 2020, published 2023)",
  "key": {"human GLP-1 receptor [1]": {"target": "T1, human GLP-1 receptor (human, UniProt P43220 24-463)", "assay": "cell-based or functional assay"}, "human GIP receptor [2]": {"target": "T2, human GIP receptor (human, UniProt P48546 22-466)", "T2 sequence (looked up)": "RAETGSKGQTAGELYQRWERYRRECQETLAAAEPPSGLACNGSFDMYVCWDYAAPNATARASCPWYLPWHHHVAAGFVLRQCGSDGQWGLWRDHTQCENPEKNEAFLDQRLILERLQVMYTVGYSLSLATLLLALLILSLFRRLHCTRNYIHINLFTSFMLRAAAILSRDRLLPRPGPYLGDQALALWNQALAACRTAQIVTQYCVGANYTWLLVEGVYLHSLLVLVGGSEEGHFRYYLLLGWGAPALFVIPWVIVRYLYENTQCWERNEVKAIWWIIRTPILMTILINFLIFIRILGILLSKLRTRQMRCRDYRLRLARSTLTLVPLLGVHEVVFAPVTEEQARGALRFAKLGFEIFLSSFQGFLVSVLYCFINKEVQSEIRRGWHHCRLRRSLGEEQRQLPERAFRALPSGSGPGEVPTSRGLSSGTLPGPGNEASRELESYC", "assay": "cell-based or functional assay"}, "human GIP receptor [3]": {"target": "T2, human GIP receptor", "assay": "cell-based or functional assay", "remark": "listed apart in the source"}, "human GLP-1 receptor [4]": {"target": "T1, human GLP-1 receptor", "assay": "displacement of [125I]GLP-1 from hGLP-1R HEK-293 membranes, SPA"}},
  "note": "*1 amine or outer side, *2 acyl side, *3 side chain or, on linkers, in order; H or OH if unused. Where no end group is shown, it is not given here. Side-chain parts run from the residue outwards. [ ]: non-standard residue; d: D form. The star is where a group is joined. C20 diacid = O=C(O)CCCCCCCCCCCCCCCCCCC(=O)*; C18 diacid = O=C(O)CCCCCCCCCCCCCCCCC(=O)*; γGlu = O=C(O)[C@H](CCC(=O)[*:2])N[*:1]; NMeY = CN[C@@H](Cc1ccc(O)cc1)C(=O)O; AEEA = NCCOCCOCC(=O)O; Aib = CC(C)(N)C(=O)O",
  "data": [
    {"binder": "[NMeY][Aib]EGTFISDLSI[Aib]K([AEEA-AEEA-γGlu-C18 diacid])DRIHQ[Aib]EFIEWLLAQGPSSGAPPPS-NH2 (N-terminus assumed; SMILES CC[C@H](C)[C@H](NC(=O)[C@H](CCCNC(=N)N)NC(=O)[C@H](CC(=O)O)NC(=O)[C@H](CCCCNC(=O)COCCOCCNC(=O)COCCOCCNC(=O)CC[C@H](NC(=O)CCCCCCCCCCCCCCCCC(=O)O)C(=O)O)NC(=O)C(C)(C)NC(=O)[C@@H](NC(=O)[C@H](CO)NC(=O)[C@H](CC(C)C)NC(=O)[C@H](CC(=O)O)NC(=O)[C@H](CO)NC(=O)[C@@H](NC(=O)[C@H](Cc1ccccc1)NC(=O)[C@@H](NC(=O)CNC(=O)[C@H](CCC(=O)O)NC(=O)C(C)(C)NC(=O)[C@H](Cc1ccc(O)cc1)NC)[C@@H](C)O)[C@@H](C)CC)[C@@H](C)CC)C(=O)N[C@@H](Cc1c[nH]cn1)C(=O)N[C@@H](CCC(N)=O)C(=O)NC(C)(C)C(=O)N[C@@H](CCC(=O)O)C(=O)N[C@@H](Cc1ccccc1)C(=O)N[C@H](C(=O)N[C@@H](CCC(=O)O)C(=O)N[C@@H](Cc1c[nH]c2ccccc12)C(=O)N[C@@H](CC(C)C)C(=O)N[C@@H](CC(C)C)C(=O)N[C@@H](C)C(=O)N[C@@H](CCC(N)=O)C(=O)NCC(=O)N1CCC[C@H]1C(=O)N[C@@H](CO)C(=O)N[C@@H](CO)C(=O)NCC(=O)N[C@@H](C)C(=O)N1CCC[C@H]1C(=O)N1CCC[C@H]1C(=O)N1CCC[C@H]1C(=O)N[C@@H](CO)C(N)=O)[C@@H](C)CC, Exendin-4 derived synthetic lipidated peptide of formula I)", "note": "[SEQ ID NO: 8]", "values": [
      {"measurement": "EC50 hGLP-1R 0% HSA, cAMP in HEK-293 cells", "setting": "human GLP-1 receptor [1]", "result": "> 10", "unit": "nM"},
      {"measurement": "EC50 hGIPR 0% HSA, cAMP in HEK-293 cells", "setting": "human GIP receptor [2]", "result": 0.19, "unit": "pM"},
      {"measurement": "EC50 hGIPR 0.1% HSA, cAMP in HEK-293 cells", "setting": "human GIP receptor [2]", "result": 1.37, "unit": "pM"},
      {"measurement": "hGIPR EC50, cAMP in human adipocytes", "setting": "human GIP receptor [3]", "result": 0.5, "unit": "nM"},
      {"measurement": "hGIPR Emax, cAMP in human adipocytes", "setting": "human GIP receptor [3]", "result": 116, "unit": "%"},
      {"measurement": "IC50", "setting": "human GLP-1 receptor [4]", "result": 186, "unit": "nM"}
    ]},
    {"binder": "Y[Aib]EGTFISDLSI[Aib]K([Gly-Gly-Gly-γGlu-C18 diacid])DRIHQ[Aib]EFIEWLLAQGPSSGAPPPS-NH2 (N-terminus assumed; SMILES CC[C@H](C)[C@H](NC(=O)[C@H](CCCNC(=N)N)NC(=O)[C@H](CC(=O)O)NC(=O)[C@H](CCCCNC(=O)CNC(=O)CNC(=O)CNC(=O)CC[C@H](NC(=O)CCCCCCCCCCCCCCCCC(=O)O)C(=O)O)NC(=O)C(C)(C)NC(=O)[C@@H](NC(=O)[C@H](CO)NC(=O)[C@H](CC(C)C)NC(=O)[C@H](CC(=O)O)NC(=O)[C@H](CO)NC(=O)[C@@H](NC(=O)[C@H](Cc1ccccc1)NC(=O)[C@@H](NC(=O)CNC(=O)[C@H](CCC(=O)O)NC(=O)C(C)(C)NC(=O)[C@@H](N)Cc1ccc(O)cc1)[C@@H](C)O)[C@@H](C)CC)[C@@H](C)CC)C(=O)N[C@@H](Cc1c[nH]cn1)C(=O)N[C@@H](CCC(N)=O)C(=O)NC(C)(C)C(=O)N[C@@H](CCC(=O)O)C(=O)N[C@@H](Cc1ccccc1)C(=O)N[C@H](C(=O)N[C@@H](CCC(=O)O)C(=O)N[C@@H](Cc1c[nH]c2ccccc12)C(=O)N[C@@H](CC(C)C)C(=O)N[C@@H](CC(C)C)C(=O)N[C@@H](C)C(=O)N[C@@H](CCC(N)=O)C(=O)NCC(=O)N1CCC[C@H]1C(=O)N[C@@H](CO)C(=O)N[C@@H](CO)C(=O)NCC(=O)N[C@@H](C)C(=O)N1CCC[C@H]1C(=O)N1CCC[C@H]1C(=O)N1CCC[C@H]1C(=O)N[C@@H](CO)C(N)=O)[C@@H](C)CC, Exendin-4 derived synthetic lipidated peptide of formula I)", "note": "[SEQ ID NO: 5]", "values": [
      {"measurement": "EC50 hGLP-1R 0% HSA, cAMP in HEK-293 cells", "setting": "human GLP-1 receptor [1]", "result": "> 10", "unit": "nM"},
      {"measurement": "EC50 hGIPR 0% HSA, cAMP in HEK-293 cells", "setting": "human GIP receptor [2]", "result": 0.16, "unit": "pM"},
      {"measurement": "EC50 hGIPR 0.1% HSA, cAMP in HEK-293 cells", "setting": "human GIP receptor [2]", "result": 1.75, "unit": "pM"},
      {"measurement": "hGIPR EC50, cAMP in human adipocytes", "setting": "human GIP receptor [3]", "result": 0.5, "unit": "nM"},
      {"measurement": "hGIPR Emax, cAMP in human adipocytes", "setting": "human GIP receptor [3]", "result": 137, "unit": "%"},
      {"measurement": "IC50", "setting": "human GLP-1 receptor [4]", "result": 145, "unit": "nM"}
    ]},
    {"binder": "Y[Aib]EGTFISDLSI[Aib]K([AEEA-AEEA-γGlu-C18 diacid])DRIHQEEFIEWLLAQGPSSGAPPPS-OH (N-terminus assumed; SMILES CC[C@H](C)[C@H](NC(=O)[C@H](Cc1ccccc1)NC(=O)[C@H](CCC(=O)O)NC(=O)[C@H](CCC(=O)O)NC(=O)[C@H](CCC(N)=O)NC(=O)[C@H](Cc1c[nH]cn1)NC(=O)[C@@H](NC(=O)[C@H](CCCNC(=N)N)NC(=O)[C@H](CC(=O)O)NC(=O)[C@H](CCCCNC(=O)COCCOCCNC(=O)COCCOCCNC(=O)CC[C@H](NC(=O)CCCCCCCCCCCCCCCCC(=O)O)C(=O)O)NC(=O)C(C)(C)NC(=O)[C@@H](NC(=O)[C@H](CO)NC(=O)[C@H](CC(C)C)NC(=O)[C@H](CC(=O)O)NC(=O)[C@H](CO)NC(=O)[C@@H](NC(=O)[C@H](Cc1ccccc1)NC(=O)[C@@H](NC(=O)CNC(=O)[C@H](CCC(=O)O)NC(=O)C(C)(C)NC(=O)[C@@H](N)Cc1ccc(O)cc1)[C@@H](C)O)[C@@H](C)CC)[C@@H](C)CC)[C@@H](C)CC)C(=O)N[C@@H](CCC(=O)O)C(=O)N[C@@H](Cc1c[nH]c2ccccc12)C(=O)N[C@@H](CC(C)C)C(=O)N[C@@H](CC(C)C)C(=O)N[C@@H](C)C(=O)N[C@@H](CCC(N)=O)C(=O)NCC(=O)N1CCC[C@H]1C(=O)N[C@@H](CO)C(=O)N[C@@H](CO)C(=O)NCC(=O)N[C@@H](C)C(=O)N1CCC[C@H]1C(=O)N1CCC[C@H]1C(=O)N1CCC[C@H]1C(=O)N[C@@H](CO)C(=O)O, Exendin-4 derived synthetic lipidated peptide of formula I)", "note": "[SEQ ID NO: 11]", "values": [
      {"measurement": "EC50 hGLP-1R 0% HSA, cAMP in HEK-293 cells", "setting": "human GLP-1 receptor [1]", "result": "> 10", "unit": "nM"},
      {"measurement": "EC50 hGIPR 0% HSA, cAMP in HEK-293 cells", "setting": "human GIP receptor [2]", "result": 0.19, "unit": "pM"},
      {"measurement": "EC50 hGIPR 0.1% HSA, cAMP in HEK-293 cells", "setting": "human GIP receptor [2]", "result": 2.24, "unit": "pM"},
      {"measurement": "hGIPR EC50, cAMP in human adipocytes", "setting": "human GIP receptor [3]", "result": 1, "unit": "nM"},
      {"measurement": "hGIPR Emax, cAMP in human adipocytes", "setting": "human GIP receptor [3]", "result": 122, "unit": "%"},
      {"measurement": "IC50", "setting": "human GLP-1 receptor [4]", "result": 288, "unit": "nM"}
    ]},
    {"binder": "Y[Aib]EGTFISDLSI[Aib]K([AEEA-AEEA-γGlu-C20 diacid])DRIHQEEFIEWLLAQGPSSGAPPPS-NH2 (N-terminus assumed; SMILES CC[C@H](C)[C@H](NC(=O)[C@H](Cc1ccccc1)NC(=O)[C@H](CCC(=O)O)NC(=O)[C@H](CCC(=O)O)NC(=O)[C@H](CCC(N)=O)NC(=O)[C@H](Cc1c[nH]cn1)NC(=O)[C@@H](NC(=O)[C@H](CCCNC(=N)N)NC(=O)[C@H](CC(=O)O)NC(=O)[C@H](CCCCNC(=O)COCCOCCNC(=O)COCCOCCNC(=O)CC[C@H](NC(=O)CCCCCCCCCCCCCCCCCCC(=O)O)C(=O)O)NC(=O)C(C)(C)NC(=O)[C@@H](NC(=O)[C@H](CO)NC(=O)[C@H](CC(C)C)NC(=O)[C@H](CC(=O)O)NC(=O)[C@H](CO)NC(=O)[C@@H](NC(=O)[C@H](Cc1ccccc1)NC(=O)[C@@H](NC(=O)CNC(=O)[C@H](CCC(=O)O)NC(=O)C(C)(C)NC(=O)[C@@H](N)Cc1ccc(O)cc1)[C@@H](C)O)[C@@H](C)CC)[C@@H](C)CC)[C@@H](C)CC)C(=O)N[C@@H](CCC(=O)O)C(=O)N[C@@H](Cc1c[nH]c2ccccc12)C(=O)N[C@@H](CC(C)C)C(=O)N[C@@H](CC(C)C)C(=O)N[C@@H](C)C(=O)N[C@@H](CCC(N)=O)C(=O)NCC(=O)N1CCC[C@H]1C(=O)N[C@@H](CO)C(=O)N[C@@H](CO)C(=O)NCC(=O)N[C@@H](C)C(=O)N1CCC[C@H]1C(=O)N1CCC[C@H]1C(=O)N1CCC[C@H]1C(=O)N[C@@H](CO)C(N)=O, Exendin-4 derived synthetic lipidated peptide of formula I)", "note": "[SEQ ID NO: 10]", "values": [
      {"measurement": "EC50 hGLP-1R 0% HSA, cAMP in HEK-293 cells", "setting": "human GLP-1 receptor [1]", "result": "> 10", "unit": "nM"},
      {"measurement": "EC50 hGIPR 0% HSA, cAMP in HEK-293 cells", "setting": "human GIP receptor [2]", "result": 0.25, "unit": "pM"},
      {"measurement": "EC50 hGIPR 0.1% HSA, cAMP in HEK-293 cells", "setting": "human GIP receptor [2]", "result": 5.37, "unit": "pM"},
      {"measurement": "hGIPR EC50, cAMP in human adipocytes", "setting": "human GIP receptor [3]", "result": 0.4, "unit": "nM"},
      {"measurement": "hGIPR Emax, cAMP in human adipocytes", "setting": "human GIP receptor [3]", "result": 127, "unit": "%"},
      {"measurement": "IC50", "setting": "human GLP-1 receptor [4]", "result": 223, "unit": "nM"}
    ]}
  ]
}
